# According to patent US7745109B2, “Regulation of cell growth by MUC1” (Dana-Farber Cancer Insitute, Inc., priority 2003, dated 2010):
# Target: T1, MUC1-p120 complexes (Homo sapiens, UniProt O60716)
# T1 sequence (O60716 1-968): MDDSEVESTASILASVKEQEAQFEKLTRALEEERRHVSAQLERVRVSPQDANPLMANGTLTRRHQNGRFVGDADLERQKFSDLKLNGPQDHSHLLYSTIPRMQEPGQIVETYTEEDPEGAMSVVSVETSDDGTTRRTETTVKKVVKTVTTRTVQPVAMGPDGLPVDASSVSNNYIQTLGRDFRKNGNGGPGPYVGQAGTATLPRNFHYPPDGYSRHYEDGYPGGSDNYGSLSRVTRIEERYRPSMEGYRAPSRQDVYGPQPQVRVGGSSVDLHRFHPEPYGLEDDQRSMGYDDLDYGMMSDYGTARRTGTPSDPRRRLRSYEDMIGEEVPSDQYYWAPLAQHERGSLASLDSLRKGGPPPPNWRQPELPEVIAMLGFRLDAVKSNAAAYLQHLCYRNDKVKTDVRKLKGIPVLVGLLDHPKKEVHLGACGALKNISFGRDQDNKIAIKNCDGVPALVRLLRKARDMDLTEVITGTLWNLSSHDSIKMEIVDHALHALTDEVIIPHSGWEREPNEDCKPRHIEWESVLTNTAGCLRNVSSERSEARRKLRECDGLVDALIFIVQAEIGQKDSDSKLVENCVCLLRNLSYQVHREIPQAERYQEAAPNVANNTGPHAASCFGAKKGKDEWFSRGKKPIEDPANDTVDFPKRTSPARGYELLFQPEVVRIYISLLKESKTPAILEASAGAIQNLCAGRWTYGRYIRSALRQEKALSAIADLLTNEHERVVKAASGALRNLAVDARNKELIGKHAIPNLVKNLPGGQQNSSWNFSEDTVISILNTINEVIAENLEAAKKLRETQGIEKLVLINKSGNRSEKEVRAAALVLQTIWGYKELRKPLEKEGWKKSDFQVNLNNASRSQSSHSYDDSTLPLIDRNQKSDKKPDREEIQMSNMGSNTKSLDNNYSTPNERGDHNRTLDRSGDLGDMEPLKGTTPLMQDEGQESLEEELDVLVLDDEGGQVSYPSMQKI
# Experiment: Inhibition of MUC1/CD binding to GST-p120 by peptides (glutathione bead precipitation, anti-MUC1/CD immunoblot)
# Details: peptide incubated with MUC1/CD and GST-p120; immunoblot with anti-MUC1/CD (FIG. 7C)
# Procedure: FIG. 7C is a pair of photographs of immunoblots. In the table above the immunoblots is indicated the mixtures of MUC1/CD, GST-p120, and GST which were incubated in the absence of inhibitor peptide (first and fourth lanes of both immunoblots) or in the presence of either a peptide with the amino acid sequence […] (SEQ ID NO:7) or a peptide with the amino acid sequence […] (SEQ ID NO:8). The four mixtures were incubated with glutathione-Sepharose 4B™ beads and proteins precipitated by the beads were subjected to immunoblot analysis with anti-MUC1/CD (“IB: anti-MUC1/CD”) (top immunoblot) or anti-p120 (“IB: anti-p120”) ([…]). The positions of MUC1/CD and p120 on the immunoblots are indicated.
# To identify the site in MUC1/CD that binds to p120, full-length MUC1/CD and the N- and C-terminal fragments (FIG. 7A) were incubated with purified GST-p120. […] To further localize the site, two peptides from the overlapping region were prepared. […] These findings indicate that p120 interacts with the […] site (SEQ ID NO:7) in MUC1.
sequence,measurement,value
MSEYPTYHTH (listed as Homo sapiens) [peptide from the MUC1/CD region common to the N- and C-terminal fragments],inhibition of the formation of MUC1-p120 complexes,inhibits the formation of MUC1-p120 complexes
